In PMC8163841:

Molecular target: Ino80 carrying a C-terminal 2xFlag-tag (S. cerevisiae) (UniProt P53115)
Chain of UniProt P53115 (P53115 whole entry): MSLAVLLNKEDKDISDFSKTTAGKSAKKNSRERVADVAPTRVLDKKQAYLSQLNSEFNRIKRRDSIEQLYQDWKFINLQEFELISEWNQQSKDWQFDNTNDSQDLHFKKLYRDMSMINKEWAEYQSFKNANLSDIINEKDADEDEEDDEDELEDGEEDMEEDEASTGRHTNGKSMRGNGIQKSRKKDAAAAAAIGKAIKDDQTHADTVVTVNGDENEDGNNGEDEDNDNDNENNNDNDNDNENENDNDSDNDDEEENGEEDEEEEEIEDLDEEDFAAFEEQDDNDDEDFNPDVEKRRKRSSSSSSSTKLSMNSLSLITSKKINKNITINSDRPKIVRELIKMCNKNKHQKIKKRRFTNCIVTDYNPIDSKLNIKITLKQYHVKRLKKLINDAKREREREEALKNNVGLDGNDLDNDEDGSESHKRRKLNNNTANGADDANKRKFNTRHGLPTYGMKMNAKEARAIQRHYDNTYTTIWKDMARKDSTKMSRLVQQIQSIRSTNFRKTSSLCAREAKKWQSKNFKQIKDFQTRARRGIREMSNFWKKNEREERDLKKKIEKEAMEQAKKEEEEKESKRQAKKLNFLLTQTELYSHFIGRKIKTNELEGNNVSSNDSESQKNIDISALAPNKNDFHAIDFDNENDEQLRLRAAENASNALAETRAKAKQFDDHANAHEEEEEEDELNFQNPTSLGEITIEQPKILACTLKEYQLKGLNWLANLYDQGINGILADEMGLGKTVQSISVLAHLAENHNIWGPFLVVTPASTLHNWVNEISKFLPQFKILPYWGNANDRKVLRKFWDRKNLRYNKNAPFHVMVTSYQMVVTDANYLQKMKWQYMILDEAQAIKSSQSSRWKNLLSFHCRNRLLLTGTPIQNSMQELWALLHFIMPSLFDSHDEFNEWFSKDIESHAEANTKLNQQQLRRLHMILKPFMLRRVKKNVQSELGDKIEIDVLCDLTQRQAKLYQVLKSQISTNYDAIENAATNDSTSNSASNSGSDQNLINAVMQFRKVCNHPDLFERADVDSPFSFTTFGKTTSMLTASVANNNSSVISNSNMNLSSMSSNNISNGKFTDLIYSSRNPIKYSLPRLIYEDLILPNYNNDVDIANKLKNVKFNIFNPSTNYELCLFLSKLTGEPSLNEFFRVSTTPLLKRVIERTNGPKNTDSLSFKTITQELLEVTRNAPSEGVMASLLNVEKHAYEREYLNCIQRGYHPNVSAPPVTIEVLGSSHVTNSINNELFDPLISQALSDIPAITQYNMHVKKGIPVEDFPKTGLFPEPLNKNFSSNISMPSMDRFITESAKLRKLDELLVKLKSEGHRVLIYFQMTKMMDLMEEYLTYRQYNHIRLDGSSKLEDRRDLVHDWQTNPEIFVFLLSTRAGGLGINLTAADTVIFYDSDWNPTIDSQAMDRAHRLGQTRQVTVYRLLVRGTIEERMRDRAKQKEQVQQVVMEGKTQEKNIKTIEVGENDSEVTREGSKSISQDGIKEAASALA

B1: S. cerevisiae Reb1 with a Streptavidin tag at the C terminus (natural protein)
chain: MPSGHNDKNANQESVEEAVLKYVGVGLDHQNHDPQLHTKDLENKHSKKQNIVESSSDVDVNNNDDSNRNEDNNDDSENISALNANESSSNVDHANSNEQHNAVMDWYLRQTAHNQQDDEDDENNNNTDNGNDSNNHFSQSDIVVDDDDDKNKKDAGVGVDDDHQSMAMAAVAAAYTLSKNNNNNNSIANDSNSRKRQHDNGNNHENSQKKRKNNNDDDDRQIGNVDPELTTLGDADDNDTNNDVIDRDQLVHKAIIDADSITQHPDFQQYLNTAADTDDNEKLKHIKDHLMRTHGLNHQNKNHNDDTDDLSNSTKQYSELQKDSMLDSSLNKSRNYMEVLPKVISQDTQPHQQKSPSHDNEAGSVDNSEISQLLQSAATKASSLVSLSSSSATPSTSRSNNSKAFDKAEDAALERFINEYEAIERLTRQQVCERIWSSDRPKDNFWNNIYKVLPYRSSSSIYKHMRRKYHIFEQRGKWTAEEEQELAKLCAEKEGQWAEIGKTLGRMPEDCRDRWRNYVKCGTNRASNRWSVEEEELLKKVISDMLEEAQQQQSQLHPNLLEEEQHLLQDDQNDHRNNDEDDDDTASAAAAAAAAIQEQQQLLQQKQQDDDDAIAAAAAAASSSLGDNKDEDKPHDSLGIQLDDNSQNSMVPAPSATSTHSKSLSNTIRRHNNKLRKSLMGNGKLDFKDIINWTIVSERMGGTRSRIQCRYKWNKLVKREAIAKIQTVKDDDMLWIFEKLRDLGITEDSQVDWDELAALKPGMKLNGLELKLCYERMKKKVKGYKQKSINEISKELVDYFSSNISMKTEN
NADH-based ATPase activity of the WT INO80 complex with yGL167c-NCP601 mononucleosomes, with against without Reb1: 2 fold
